Columns and labels:
rCoa binding to Fg = target: T1, rCoa binding to Fg (Homo sapiens, UniProt P02671+P02675+P02679); assay: Competition ELISA, peptide inhibition of recombinant Coa binding to Fg; settings: increasing concentrations of peptide; 4 nM GST-tagged Coa proteins
T1 construct: full-length human Fibrinogen (diluted in PBS, Enzyme research); purchased Enzyme research; host or cells: Coa probe made in E. coli BL21
T1 sequence (P02671 20-629 limits assumed): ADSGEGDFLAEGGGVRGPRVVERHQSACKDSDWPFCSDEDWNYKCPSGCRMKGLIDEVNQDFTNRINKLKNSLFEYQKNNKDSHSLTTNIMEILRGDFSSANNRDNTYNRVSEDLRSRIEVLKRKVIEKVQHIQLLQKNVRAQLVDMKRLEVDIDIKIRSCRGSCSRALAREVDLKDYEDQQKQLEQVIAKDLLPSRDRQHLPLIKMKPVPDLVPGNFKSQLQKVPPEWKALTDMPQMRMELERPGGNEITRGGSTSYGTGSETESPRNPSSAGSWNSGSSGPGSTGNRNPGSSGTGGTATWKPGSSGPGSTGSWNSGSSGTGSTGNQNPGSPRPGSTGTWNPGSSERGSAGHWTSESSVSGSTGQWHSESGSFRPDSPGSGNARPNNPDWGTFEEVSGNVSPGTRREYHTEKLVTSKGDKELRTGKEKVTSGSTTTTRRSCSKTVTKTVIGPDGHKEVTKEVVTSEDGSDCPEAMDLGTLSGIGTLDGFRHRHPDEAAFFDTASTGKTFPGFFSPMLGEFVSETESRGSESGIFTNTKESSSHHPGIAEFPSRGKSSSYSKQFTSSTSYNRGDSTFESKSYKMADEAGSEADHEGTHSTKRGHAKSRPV
T1 sequence (P02675 31-491): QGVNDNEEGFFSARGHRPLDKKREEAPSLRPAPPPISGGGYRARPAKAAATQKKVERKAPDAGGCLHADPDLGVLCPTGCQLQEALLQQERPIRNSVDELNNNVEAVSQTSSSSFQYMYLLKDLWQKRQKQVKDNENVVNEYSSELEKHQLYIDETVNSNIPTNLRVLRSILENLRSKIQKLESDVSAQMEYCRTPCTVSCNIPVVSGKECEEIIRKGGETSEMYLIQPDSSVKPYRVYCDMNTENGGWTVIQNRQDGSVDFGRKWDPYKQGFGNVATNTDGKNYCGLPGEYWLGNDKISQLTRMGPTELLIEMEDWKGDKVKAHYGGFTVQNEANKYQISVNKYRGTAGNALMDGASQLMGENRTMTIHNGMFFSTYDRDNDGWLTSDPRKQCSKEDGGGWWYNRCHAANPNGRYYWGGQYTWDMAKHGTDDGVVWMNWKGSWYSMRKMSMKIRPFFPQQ
T1 sequence (P02679 27-453): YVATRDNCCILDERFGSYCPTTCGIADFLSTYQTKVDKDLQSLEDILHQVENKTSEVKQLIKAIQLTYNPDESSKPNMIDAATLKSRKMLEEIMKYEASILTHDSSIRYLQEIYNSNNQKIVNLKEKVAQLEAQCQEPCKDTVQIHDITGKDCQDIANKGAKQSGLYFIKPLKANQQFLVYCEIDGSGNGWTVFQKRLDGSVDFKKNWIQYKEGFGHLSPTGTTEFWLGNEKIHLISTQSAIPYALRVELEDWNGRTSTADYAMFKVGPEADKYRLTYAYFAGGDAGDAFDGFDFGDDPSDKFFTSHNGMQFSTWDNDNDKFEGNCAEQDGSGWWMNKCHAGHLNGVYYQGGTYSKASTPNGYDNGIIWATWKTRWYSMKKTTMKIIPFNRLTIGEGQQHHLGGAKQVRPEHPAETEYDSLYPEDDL
Excerpt: FIG. 9A illustrates a schematic presentation of recombinant Coa fragments generated in this study. Coa is depicted in its secreted form Coa (27-636) lacking the signal peptide (1-26). The N-terminus of Coa (Coa-N; Coa 27-310) constitutes D1D2 prothrombin binding domain. The C-terminus of Coa (Coa-C; Coa 311-636) includes the central region and the tandem-repeat region. The Coa-C further divides into two parts, the Coa-R is corresponding to the tandem-repeat region covering residue 506-636, and the Coa-F fragment covering residues 311-505. Recombinant protein Coa-R0 corresponds to the residues 474-506 residues. […] FIG. 9B illustrates an ELISA assays of GST-tagged Coa fragments binding to immobilized Fg. Open circle, Coa (Coa 27-636); open upright triangle, Coa-N(Coa 27-310); open inverted triangle, Coa-C(Coa 311-636); closed circle, Coa-R (Coa 506-636); closed diamond, Coa-F (Coa 311-505). […] FIG. 9D illustrates the effect of peptide Efb-O on inhibition of rCoa binding to Fg. Increasing concentration of Efb-O were incubated with 4 nM GST-tagged Coa proteins in Fg-coated microtiter wells. Control, BSA.
[…] All proteins were diluted in TBS containing 1% BSA and 0.05% TWEEN® 20 and the ELISA assays were carried out at room temperature.

rEfb-O binding to Fg = target: T2, rEfb-O binding to Fg (Homo sapiens, UniProt P02671+P02675+P02679); assay: Competition ELISA, peptide inhibition of rEfb-O binding to immobilized Fg; settings: rEfb-O 5 nM; peptides 2 μM or increasing concentrations
T2 construct: full-length human Fibrinogen (diluted in PBS, Enzyme research); purchased Enzyme research; host or cells: Efb probe made in E. coli
T2 sequence (P02671 20-629 limits assumed): T1 sequence (P02671 20-629 limits assumed)
T2 sequence (P02675 31-491): T1 sequence (P02675 31-491)
T2 sequence (P02679 27-453): T1 sequence (P02679 27-453)
Method: FIG. 10A is a table of the Efb-O variant peptides were synthesized where each residue in the sequence is individually replaced with Ala (or Ser when the native a.a. is Ala). FIG. 10B is a plot of the Efb-O variant peptides inhibit rEfb-O (5 nM) binding to immobilized Fg in solid phase assay. Wells were coated with 0.25 μg/well Fg. Peptides (2 μM) were mixed with rEfb-O proteins (5 nM) and incubated in the Fg wells for 1 hour. FIG. 10C is a plot showing selected peptides inhibit rEfb-O binding to immobilized Fg. Increasing concentrations of Efb peptides were incubated with 5 nM rEfb-O in Fg-coated microtiter wells. To identify the residues in Efb-O that are important for Fg binding an Alanine scanning approach was used. A panel of Efb-O variant peptides were synthesized where each residue in the sequence is individually replaced with Ala (or Ser when the native a.a. is Ala; FIG. 10A). The individual peptides are then examined for their ability to compete with the binding of rEfb-O (5 nM) to immobilized Fg. […]
In the case of peptide inhibition assay, various concentration of Efb or Coa peptides were mixed with a fixed concentration of Coa-GST or Efb-GST fusion proteins (5-10 nM) in TBS and the bound GST fusion proteins were detected through incubation with HRP-conjugated rabbit anti-GST polyclonal antibodies (5000× dilution). […]

sEfb-O: synthetic peptide mimicking the high affinity Fg-binding motif in Efb (Efb 68-98) (KYIKFKHDYNILEFNDGTFEYGARPQFN)
inhibition of recombinant Coa binding to Fg (rCoa binding to Fg): effectively inhibited recombinant Coa binding to Fg
inhibition of rEfb-O binding to immobilized Fg (rEfb-O binding to Fg): efficiently blocked
